US20140287989A1 (CENTRE NATIONAL DE LA RECHERCHE SCIENTIFIQUE, published 2014)
Square brackets hold non-standard residues; d marks the D form. Phe(3,4-Cl2) = N[C@@H](Cc1ccc(Cl)c(Cl)c1)C(=O)O; Phe(4-Br) = N[C@@H](Cc1ccc(Br)cc1)C(=O)O; Phe(4-Cl) = N[C@@H](Cc1ccc(Cl)cc1)C(=O)O; Phe(4-Me) = Cc1ccc(C[C@H](N)C(=O)O)cc1; Cha = N[C@@H](CC1CCCCC1)C(=O)O

What was measured:
[1] = biological target: E. coli β clamp (β subunit of DNA polymerase III, dnaN gene product) (E. coli) (UniProt P0A988); assay: ITC, peptide 400 µM into β ring 30 µM, 25 °C, second experiment
Chain of E. coli β clamp (β subunit of DNA polymerase III, dnaN gene product) (E. coli) (P0A988 whole entry): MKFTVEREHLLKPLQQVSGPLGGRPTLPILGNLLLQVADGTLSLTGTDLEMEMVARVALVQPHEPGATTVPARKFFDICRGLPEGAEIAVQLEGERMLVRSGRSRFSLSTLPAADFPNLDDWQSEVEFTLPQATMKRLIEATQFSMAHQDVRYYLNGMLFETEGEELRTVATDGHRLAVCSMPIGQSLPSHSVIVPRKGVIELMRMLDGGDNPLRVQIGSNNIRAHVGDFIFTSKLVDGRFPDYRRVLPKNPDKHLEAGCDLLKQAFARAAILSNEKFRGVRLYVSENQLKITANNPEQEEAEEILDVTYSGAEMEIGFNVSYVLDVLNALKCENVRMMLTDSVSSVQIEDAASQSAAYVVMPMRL

[2] = biological target: E. coli β clamp (β subunit of DNA polymerase III, dnaN gene product), N-tagged (E. coli) (UniProt P0A988); assay: SPR competition (Biacore 3000): β ring 0.25 µM mixed with the challenger, injected on immobilised P1
Chain of E. coli β clamp (β subunit of DNA polymerase III, dnaN gene product), N-tagged (E. coli) (P0A988 whole entry): as above

[3] = biological target: E. coli β clamp (β subunit of DNA polymerase III, dnaN gene product), N-tagged (E. coli) (UniProt P0A988); assay: SPR competition on immobilised P1; ΔG = -RT ln Ki
[4] = biological target: E. coli β clamp (β subunit of DNA polymerase III, dnaN gene product) (E. coli) (UniProt P0A988); assay: SPR competition, β ring on immobilised P1
[5] = biological target: E. coli β clamp (β subunit of DNA polymerase III, dnaN gene product) (E. coli) (UniProt P0A988); assay: ITC, peptide 400 µM into β ring 30 µM, 25 °C
[6] = biological target: E. coli β clamp (β subunit of DNA polymerase III, dnaN gene product), N-tagged (E. coli) (UniProt P0A988); assay: ITC, peptide 400 µM into β ring 20 or 30 µM, 25° C
[7] = biological target: E. coli β clamp (β subunit of DNA polymerase III, dnaN gene product), N-tagged (E. coli) (UniProt P0A988); assay: ITC
[8] = biological target: E. coli β clamp (β subunit of DNA polymerase III, dnaN gene product), N-tagged (E. coli) (UniProt P0A988); assay: SPR competition on immobilised P1
[9] = biological target: E. coli β clamp (β subunit of DNA polymerase III, dnaN gene product), N-tagged (E. coli) (UniProt P0A988)
[10] = biological target: E. coli β clamp (β subunit of DNA polymerase III, dnaN gene product), N-tagged (E. coli) (UniProt P0A988); assay: ITC / SPR
[11] = biological target: T1, E. coli β clamp (β subunit of DNA polymerase III, dnaN gene product), N-tagged (E. coli, UniProt P0A988 1-366); assay: SPR competition on immobilised P1
T1 construct: The dnaN gene was cloned in pET15b and expressed in BL21 E. coli; also called β ring; β protein; not shown: N-terminal tag from the pET15b vector (N-tagged protein, enriched on Ni-NTA)
T1 sequence (P0A988 whole entry): as above

[12] = biological target: T1, E. coli β clamp (β subunit of DNA …); assay: cell-based or functional assay
[13] = biological target: T1, E. coli β clamp (β subunit of DNA …); assay: SPR competition against P1
[14] = biological target: T2, E. coli β clamp (β subunit of DNA polymerase III, dnaN gene product) (E. coli, UniProt P0A988 1-366); assay: from ITC data; compared residues pBrF/pClF
T2 construct: Expressed in BL21 E. coli from pET15b with an N-terminal tag; also called β ring; β protein; not shown: N-terminal tag from plasmid pET15b ('N-tagged protein', purified on Ni-NTA)
T2 sequence (P0A988 whole entry): as above

[15] = biological target: T2, E. coli β clamp (β subunit of DNA …); assay: SPR competition, β ring on immobilised P1
[16] = biological target: T2, E. coli β clamp (β subunit of DNA …); assay: from ITC data; compared residues F/pClF
[17] = biological target: T2, E. coli β clamp (β subunit of DNA …); assay: ITC, peptide 400 µM into β ring 20 µM, 25 °C
[18] = biological target: T2, E. coli β clamp (β subunit of DNA …); assay: ITC, peptide 400 µM into β ring 20 µM, 25 °C, second experiment
[19] = biological target: T2, E. coli β clamp (β subunit of DNA …); assay: from ITC data; compared residues pMeF/pClF
[20] = biological target: T2, E. coli β clamp (β subunit of DNA …); assay: from ITC data; compared residues pBrF/diClF
[21] = biological target: T2, E. coli β clamp (β subunit of DNA …); assay: from ITC data; compared residues pMeF/diClF
[22] = biological target: T2, E. coli β clamp (β subunit of DNA …); assay: from ITC data; compared residues pClF/diClF
[23] = biological target: T2, E. coli β clamp (β subunit of DNA …); assay: from ITC data; compared residues F/diClF
[24] = biological target: T2, E. coli β clamp (β subunit of DNA …); assay: SPR competition, concentration of peptide that challenges 50% of the binding of β ring to P1
[25] = biological target: T2, E. coli β clamp (β subunit of DNA …); assay: from ITC data; compared residues F/pMeF
[26] = biological target: T2, E. coli β clamp (β subunit of DNA …); assay: from ITC data; compared residues pMeF/pBrF
[27] = biological target: T2, E. coli β clamp (β subunit of DNA …); assay: from ITC data; compared residues F/pBrF
[28] = biological target: T2, E. coli β clamp (β subunit of DNA …); assay: ITC, peptide 400 µM into β ring 30 µM, 25 °C, second experiment
[29] = biological target: T2, E. coli β clamp (β subunit of DNA …); assay: from ITC data; compared residues L/Cha
[30] = biological target: T2, E. coli β clamp (β subunit of DNA …); assay: ITC, peptide 400 µM into β ring 30 µM, 25 °C
[31] = biological target: T1, E. coli β clamp (β subunit of DNA …); assay: SPR competition (Biacore 3000): β ring 0.25 µM mixed with the challenger, injected on immobilised P1
[32] = biological target: T1, E. coli β clamp (β subunit of DNA …); assay: SPR direct binding: β protein (0.125 µM to 2 µM) injected on immobilised P1, 1:1 Langmuir model
[33] = biological target: T1, E. coli β clamp (β subunit of DNA …); assay: ITC, peptide 400 µM into β ring 30 µM, 25° C
[34] = biological target: T1, E. coli β clamp (β subunit of DNA …); assay: SPR competition on immobilised P1; ΔG = -RT ln Ki

Molecule “P3 (RQLVLF) (peptide; other documents disagree on this pair)” has a Kd [1] of 2320 nM, a ΔG [1] of -7.6 kcal/mol and a ΔH [1] of -5.7 kcal/mol. The ΔS [1] was 6.6 cal/mol/deg, the IC50 [2] was 8620 nM and the ΔG [3] was -7.04 kcal/mol. For the same molecule, the IC50 [4] was 8620 nM, the Kd [5] was 2820 nM and the ΔG [5] was -7.5 kcal/mol. For the same molecule, the ΔH [5] was -5.77 kcal/mol and the ΔS [5] was 6.05 cal/mol/deg.

Molecule P14 (Ac-Q Cha DL diClF) (peptide) has a Kd [6] of 65 nM, a Kd [7] of 60 nM and an IC50 [8] of 70 nM. It also gave a fold increase against P1 [8] of 115 fold, a fold increase against P6 [8] of 15 fold and a fold increase against the full PolIV enzyme [8] of 4 fold. The IC50, Pol IV based biochemical assay (inhibition of β dependent Pol IV elongation) [9] was 125 nM and the fold increase in binding against P6 [10] was 10 to 15 fold.

B1: P7 (Ac Q Cha DLF) (peptide)
peptide: Ac-Q[Cha]DLF-OH
SMILES: CC(=O)N[C@@H](CCC(N)=O)C(=O)N[C@@H](CC1CCCCC1)C(=O)N[C@@H](CC(=O)O)C(=O)N[C@@H](CC(C)C)C(=O)N[C@@H](Cc1ccccc1)C(=O)O
notes: also called Ac-Gln-Cha-Asp-Leu-Phe-OH
With B1 the “fold increase in the interaction against P6” value [11] was 6 fold, the “IC50, Pol IV based biochemical assay (inhibition of β dependent Pol IV elongation)” value [12] was 2800 nM and the “fold decrease in affinity against P14” value [13] was 2 fold.

B2: P12 (Ac-Gln-Cha-Asp-Leu-pClPhe-OH) (peptide)
peptide: Ac-Q[Cha]DL[Phe(4-Cl)]-OH
SMILES: CC(=O)N[C@@H](CCC(N)=O)C(=O)N[C@@H](CC1CCCCC1)C(=O)N[C@@H](CC(=O)O)C(=O)N[C@@H](CC(C)C)C(=O)N[C@@H](Cc1ccc(Cl)cc1)C(=O)O
notes: also called AcQChaDLpClF; Ac-Q Cha DL pClF
With B2 the “ΔΔG (ΔGj - ΔGi) of P12 against P13” value [14] was -0.32 kcal/mol, the IC50 [15] was 160 nM and the “ΔΔG (ΔGj - ΔGi) of P12 against P7” value [16] was -0.6 kcal/mol. It also gave a Kd [17] of 89 nM, a ΔG [17] of -9.6 kcal/mol and a ΔH [17] of -15 kcal/mol. The ΔS [17] was -18.1 cal/mol/deg, the Kd [18] was 122 nM and the ΔG [18] was -9.4 kcal/mol. For the same molecule, the ΔH [18] was -14.3 kcal/mol, the ΔS [18] was -16.3 cal/mol/deg and the “ΔΔG (ΔGj - ΔGi) of P12 against P11” value [19] was -0.85 kcal/mol.

B3: P14 (Ac-Gln-Cha-Asp-Leu-(3,4-di-Cl)Phe-OH) (peptide)
peptide: Ac-Q[Cha]DL[Phe(3,4-Cl2)]-OH
SMILES: CC(=O)N[C@@H](CCC(N)=O)C(=O)N[C@@H](CC1CCCCC1)C(=O)N[C@@H](CC(=O)O)C(=O)N[C@@H](CC(C)C)C(=O)N[C@@H](Cc1ccc(Cl)c(Cl)c1)C(=O)O
notes: also called AcQChaDLdiClF; Ac Q Cha D L diClF
In the case of B3, the “ΔΔG (ΔGj - ΔGi) of P14 against P13” value [20] is reported as -0.52 kcal/mol, the “ΔΔG (ΔGj - ΔGi) of P14 against P11” value [21] is reported as -1.05 kcal/mol and the IC50 [15] is reported as 77 nM. It also gave a Kd [17] of 73 nM, a ΔG [17] of -9.6 kcal/mol and a ΔH [17] of -18.9 kcal/mol. The ΔS [17] was -30.8 cal/mol/deg, the Kd [18] was 55 nM and the ΔG [18] was -9.8 kcal/mol. The ΔH [18] was -18.1 kcal/mol, the ΔS [18] was -27.6 cal/mol/deg and the “ΔΔG (ΔGj - ΔGi) of P14 against P12” value [22] was -0.2 kcal/mol. For the same molecule, the “ΔΔG (ΔGj - ΔGi) of P14 against P7” value [23] was -0.8 kcal/mol and the Ki [24] was 85 nM.

B4: P11 (Ac-Gln-Cha-Asp-Leu-pMePhe-OH) (peptide)
peptide: Ac-Q[Cha]DL[Phe(4-Me)]-OH
SMILES: CC(=O)N[C@@H](CCC(N)=O)C(=O)N[C@@H](CC1CCCCC1)C(=O)N[C@@H](CC(=O)O)C(=O)N[C@@H](CC(C)C)C(=O)N[C@@H](Cc1ccc(C)cc1)C(=O)O
notes: also called AcQChaDLpMeF; Ac-Q Cha DL pMeF
For B4, the IC50 [15] was 260 nM, the “ΔΔG (ΔGj - ΔGi) of P11 against P7” value [25] was 0.25 kcal/mol and the Kd [17] was 401 nM. It also gave a ΔG [17] of -8.6 kcal/mol, a ΔH [17] of -14.8 kcal/mol and a ΔS [17] of -20.4 cal/mol/deg. The Kd [18] was 362 nM, the ΔG [18] was -8.6 kcal/mol and the ΔH [18] was -14.4 kcal/mol. The ΔS [18] was -19 cal/mol/deg.

B5: P13 (Ac-Gln-Cha-Asp-Leu-pBrPhe-OH) (peptide)
peptide: Ac-Q[Cha]DL[Phe(4-Br)]-OH
SMILES: CC(=O)N[C@@H](CCC(N)=O)C(=O)N[C@@H](CC1CCCCC1)C(=O)N[C@@H](CC(=O)O)C(=O)N[C@@H](CC(C)C)C(=O)N[C@@H](Cc1ccc(Br)cc1)C(=O)O
notes: also called AcQChaDLpBrF; Ac-Q Cha DL pBrF
With B5 the “ΔΔG (ΔGj - ΔGi) of P13 against P11” value [26] was -0.53 kcal/mol, the “ΔΔG (ΔGj - ΔGi) of P13 against P7” value [27] was -0.28 kcal/mol and the IC50 [15] was 96 nM. It also gave a Kd [17] of 136 nM, a ΔG [17] of -9.3 kcal/mol and a ΔH [17] of -18.1 kcal/mol. It also gave a ΔS [17] of -29.3 cal/mol/deg, a Kd [18] of 167 nM and a ΔG [18] of -9.1 kcal/mol. For the same molecule, the ΔH [18] was -15.2 kcal/mol and the ΔS [18] was -20.2 cal/mol/deg.

B6: P7 (Ac-Gln-Cha-Asp-Leu-Phe-OH) (peptide)
peptide: Ac-Q[Cha]DLF-OH
SMILES: CC(=O)N[C@@H](CCC(N)=O)C(=O)N[C@@H](CC1CCCCC1)C(=O)N[C@@H](CC(=O)O)C(=O)N[C@@H](CC(C)C)C(=O)N[C@@H](Cc1ccccc1)C(=O)O
notes: also called AcQChaDLF; Ac Q Cha D L F
B6 gave a Kd [28] of 222 nM, a ΔG [28] of -8.9 kcal/mol and a ΔH [28] of -20.5 kcal/mol. The ΔS [28] was -38.5 cal/mol/deg, the IC50 [15] was 170 nM and the “ΔΔG (ΔGj - ΔGi) of P7 against P6” value [29] was -0.66 kcal/mol. For the same molecule, the Kd [30] was 246 nM, the ΔG [30] was -8.9 kcal/mol and the ΔH [30] was -21.3 kcal/mol. For the same molecule, the ΔS [30] was -41.2 cal/mol/deg and the Ki [24] was 170 nM.

B7: P1, natural C-terminal heptapeptide of E. coli DNA polymerase IV (RQLVLGL) (peptide)
peptide: H-RQLVLGL-OH
notes: Used free in solution as challenger and immobilised on the SPR chip; the way of immobilisation is not described; also called natural Cter heptamer; natural heptapeptide
With B7 the “fold less efficient binding than the whole polymerase (PolIV)” value [11] was 30 fold, the IC50 [31] was 8850 nM and the Kd [32] was 285 nM. For the same molecule, the Kd [33] was 1000 to 2000 nM and the ΔG [34] was -7.06 kcal/mol.
